Test results from article PMC12502629, “The NagY antiterminator in Enterococcus faecalis: a novel regulatory mechanism and its impact on cell metabolism” (Microbiology Spectrum, 2025).

T1: NagY antiterminator (Enterococcus faecalis, UniProt Q834W3 1-277)
T1 construct: NagY transcriptional antiterminator of Enterococcus faecalis, encoded by nagY (ef1515); source: E. coli M15 pRep4 pQE70-nagY, purified (HisTrap HP)
T1 sequence (looked up): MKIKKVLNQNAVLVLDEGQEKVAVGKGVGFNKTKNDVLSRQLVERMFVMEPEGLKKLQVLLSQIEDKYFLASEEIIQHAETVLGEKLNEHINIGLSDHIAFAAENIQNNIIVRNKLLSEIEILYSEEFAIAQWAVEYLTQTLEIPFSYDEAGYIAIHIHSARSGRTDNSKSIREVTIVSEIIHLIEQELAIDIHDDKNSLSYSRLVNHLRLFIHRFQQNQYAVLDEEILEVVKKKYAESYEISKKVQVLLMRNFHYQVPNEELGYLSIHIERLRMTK


Columns and labels:
[1] = test system: RNase III (RNase III*);NagY (Enterococcus faecalis V19?;Enterococcus faecalis V19?); assay: spectral shift (Monolith X); conditions: RNase III* pre-incubated with NagY (8.5e-6 M), then RNA titrated; 1 mM MgCl2; ES-T buffer: 10 mM Tris pH 8.0, 40 mM NaCl, 10 mM KCl, 1 mM MgCl2, 0.05% Tween-80; room temperature (5 min pre-incubation); RNase III* stock 5e-8 M …
NagY antiterminator = molecular target: T1, NagY antiterminator; assay: other fluorescence titration; spectral shift (670 nm/650 nm) on Monolith X; RNase III* Cys-labeled at 50·10^-9 M, NagY serially diluted 5.2·10^-10 to 1.7·10^-5 M; ES-T buffer pH 8.0 (10 mM Tris, 40 mM NaCl, 10 mM KCl, 1 mM MgCl2, 0.05% Tween-80); independent triplicates; conditions: both partners purified

Molecule | Kd [1] | Kd (NagY antiterminator)
5' nagY RNA | 0.58 µM | 
RNase III (fluorescence-labeled, RNase III*) (enzyme, Enterococcus faecalis, UniProt Q82ZG1 1-230, looked up, Cys-labeled with Red-Maleimide 2nd Generation dye (degree of labeling 0.1 fluorescent tags per protein unit), RNase III of Enterococcus faecalis, a 26.2 kDa protein encoded by the rnc gene (ef3097); also called ribonuclease RNase III; rnc gene product; source: E. coli M15 pRep4 pQE30-rnc, purified (HisTrap HP)) MDNQLTTELKERYGIVFHDVNLLEQAFTHSSYVNEHRYLKLSDNERLEFLGDAVLELIVSQYLYLKFPELPEGKLTKMRAAIVREDSLAKFAKECHFDNYILLGKGEEASGGRTRASLLCDLFEAFLGALYLDQKVGAAKKFIEDVIFPKIDAGAFSHEMDHKTQLQEVLQRKGDVSIEYRLIKEEGPAHDRTFFTEVYMNGELIGLGQGKSKKLAEQDAAERALKSIPQ |  | 2.5 µM
